Data published in article PMC12044695.

Key:
Assay in all cases: ELISA; enzyme-linked lectin assay (ELLA): extracted glycoproteins immobilised at 4 μg/mL on high-binding 96-well plates, blocked with 0.5% PVA, probed 2 h at room temperature with WGAHRP or AuNP–WGAHRP (1 μg/mL WGAHRP) in PBS with 1 mM CaCl2 and 1 mM MgCl2, ABTS read at 405 nm; then the same plate probed with WGA antibodies and AlexaFluor 633 secondary antibodies (FLISA)
[1] = biological target: WGA-binding glycoproteins purified from NE-4C cells in growth condition
[2] = biological target: WGA-binding glycoproteins purified from C2C12 cells in growth condition
[3] = biological target: WGA-binding glycoproteins purified from NSC-34 cells in growth condition
[4] = biological target: WGA-binding glycoproteins purified from NSC-34 cells in differentiation conditions
[5] = biological target: WGA-binding glycoproteins purified from C2C12 cells in differentiation conditions

Measured: fluorescence intensity (FLISA) against WGAHRP (% lower than WGAHRP)

gold nanoparticle-conjugated WGAHRP (AuNP-MSA-WGAHRP conjugate) (from UniProt P00433 31-338)
50: all assays above
